Laboratory results published in publication PMC8441438, “Dynamic regulation of mitotic ubiquitin ligase APC/C by coordinated Plx1 kinase and PP2A phosphatase action on a flexible Apc1 loop” (The EMBO Journal, 2021).
Positions count from the first letter of the chain named. In names and notes the source's numbering stands. Non-standard residues stand in square brackets, D forms with d. pT = C[C@@H](OP(=O)(O)O)[C@H](N)C(=O)O; pS = N[C@@H](COP(=O)(O)O)C(=O)O

B1: MBP-fused Apc1-loop^500 WT phosphorylated by Cdk2/cyclin A (domain or fragment, Xenopus tropicalis, UniProt Q08D52 515-584, looked up)
chain: GLAAPSLGMSNPMPRPSTPLESIS[pT]PAKPLNKHLAPMDEAGML[pS]PVPELRDSTRLHESTYLDDCTFHQFG
modifications: not fully specified (residue 18, N-terminus); also: MBP fusion, pT532 only in upper of two bands (partial), phosphorylated in vitro by Cdk2/cyclin A
notes: Apc1, Xenopus tropicalis, loop^500, residues 515-584; After phosphorylation the protein runs as two bands; only the upper one carries pT532; also called Apc1-loop^500 (CDK^+); phosphorylated MBP-Apc1-loop^500; source: recombinant, purified, then phosphorylated in vitro with purified Cdk2/cyclin A at 30°C for 2 h; not shown: MBP, N-terminal, kept
B2: MBP-fused Apc1-loop^500 T532A phosphorylated by Cdk2/cyclin A (domain or fragment, Xenopus tropicalis, UniProt Q08D52 515-584, looked up)
chain: GLAAPSLGMSNPMPRPSAPLESISTPAKPLNKHLAPMDEAGMLSPVPELRDSTRLHESTYLDDCTFHQFG
modifications: also: MBP fusion, phosphorylated in vitro by Cdk2/cyclin A, sites not given here
notes: Apc1, Xenopus tropicalis, loop^500, residues 515-584; source: recombinant, purified, then phosphorylated in vitro with purified Cdk2/cyclin A; not shown: MBP, N-terminal, kept
B3: MBP-fused Apc1-loop^500 E562A (domain or fragment, Xenopus tropicalis, UniProt Q08D52 515-584, looked up)
chain: B2 chain with A18T, E48A
notes: Apc1, Xenopus tropicalis, loop^500, residues 515-584; source: recombinant, purified as described previously (Fujimitsu & Yamano, 2020); not shown: MBP, N-terminal, kept
B4: MBP-fused Apc1-loop^500 WT fragment (domain or fragment, Xenopus tropicalis, UniProt Q08D52 515-584, looked up)
chain: B2 chain with A18T
notes: Apc1 (APC/C subunit 1), Xenopus tropicalis, loop^500, residues 515-584; Added unphosphorylated; becomes phosphorylated at CDK sites T532, T539 and S558 when incubated in anaphase egg extracts; MBP is PreScission-cleavable and His6 TEV-cleavable; also called MBP-Apc1-loop^500; CDK^- Apc1-loop^500; source: recombinant, purified as described previously (Fujimitsu & Yamano, 2020); not shown: MBP, …
B5: Plx1-PBD WT (polo-box domain of Plx1) (domain or fragment, Xenopus laevis, UniProt P70032 362-598, looked up)
chain: EPADCYLSEMLQQLTCLNAVKPSERALIRQEEAEDPASIPIFWISKWVDYSDKYGLGYQLCDNSVGVLFNDSTRLIMYNDGDSLQYIERNNTESYLNVRSYPTTLTKKITLLKYFRNYMSEHLLKAGANTTPREGDELARLPFLRTWFRTRSAIILHLSNGTVQINFFQDHTKIILCPLMAAVSYIDEKREFRTYKLSLIQEFGCCKELASRLRYARTMVEKLQSSKSAVAHVKASA
notes: Plx1, Xenopus laevis, polo-box domain, amino acids 362-598; 3xFlag is PreScission-cleavable, His6 TEV-cleavable; cleavage is not reported; also called WT Plx1-PBD; source: E. coli BL21-CodonPlus (DE3), purified (Ni-NTA agarose)

How the values were obtained:
Details in all cases: both partners purified
[1] = target: B5; assay: pull-down; purified proteins only: MBP-fused Apc1-loop^500 incubated with or without purified Cdk2/cyclin A (30°C, 2 h, 1 mM ATP), bound to amylose beads, incubated with Plx1-PBD at 4°C (on ice) for 10 min in XB^CSF with 0.01% NP-40 without EGTA; Coomassie staining
[2] = target: B5; assay: pull-down; dissociation assay: Plx1-PBD/MBP-Apc1-loop^500 complexes formed in anaphase extracts, isolated on amylose beads and incubated with (78 nM) or without purified PP2A-B56γ at 23°C for 30 or 60 min; PBD left on the beads by Coomassie staining
[3] = target: B5; assay: pull-down; MBP-fused Apc1-loop^500 on amylose beads incubated in anaphase extracts at 23°C for 1 h, then purified Plx1-PBD (10 µg or indicated amounts) added to the extract for 15 min; bound proteins by SDS-PAGE and Coomassie staining
[4] = target: B4; assay: as above

Binder: B1
binding result [1]: binds

Binder: B2
binding result [1]: binds

Binder: B3
binding result [2]: binds

Binder: B4
binding result [3]: binds

Binder: B5
stoichiometry N [4]: > 1 Plx1-PBD per Apc1-loop^500
